Measurements published in paper PMC7249126.

What was measured:
[1] = target: recombinant CD81 large extracellular loop (CD81-LEL); test: peptide or protein array; direct analysis on a 3-D biochip: CD81-LEL covalently immobilised in spots (300 pg/spot) on macroporous P(GMA-co-DEGDMA), blocked with BSA; E2-GFP or VMPs in solution, 0.01 M PBS pH 7.4 (VMPs also in spiked human blood plasma), 2 h, 37 °C; GFP fluorescence read; apparent dissociation constants from adsorption isotherms linearised in double reciprocal coordinates
[2] = target: recombinant CD81 large extracellular loop (CD81-LEL); test: peptide or protein array; sandwich analysis on a 3-D biochip: CD81-LEL immobilised (300 pg/spot); E2-GFP or VMPs at 1500 ng/mL, 2 h, 37 °C; then Cy3-labelled polyclonal anti-E2 antibodies (1000 ng/mL, 3 h) for detection; 0.01 M PBS pH 7.4 or spiked human blood plasma

Substance	Kd [1]	decrease in relative signal intensity against free E2 [2]	decrease in relative signal intensity against free E2 [1]
chimeric protein E2-superfolder GFP (HCV E2 core, 412-645 aa) (domain or fragment)	11.6 nM	–	–
hepatitis C virus-mimetic particles (HC VMPs): PLA-b-PEG nanoparticles bearing E2-GFP on their surface	26.3 nM	45 to 48%	40%
